From publication PMC10208028 (Chemical Science, 2023)

B1: Cytochrome c (natural protein)
chain: not shown
modifications: covalently attached heme group
B2: 15N-labeled Cyt c with 104 amino acid residues (natural protein)
chain: not shown
modifications: 15N-labeled; covalently attached heme group

Assays:
amyloid-β 42 [1] = target: T1, amyloid-β 42 (UniProt P05067 672-713); experiment: native MS
amyloid-β 42 [2] = target: T1, amyloid-β 42; experiment: NMR titration

Row | Binder | stoichiometry N (amyloid-β 42 [1]) | binding result (amyloid-β 42 [2])
1 | B1 | 1 Cyt c : Aβ42 | 
2 | B2 |  | binds
